T1: human DLL3 (endogenous, on SCLC cell lines NCI-H82 and SHP77 and in SCLC tissue) (human, UniProt Q9NYJ7 27-618)
T1 construct: whole, on cells; also called SCLC cell lines expressing DLL3
T1 sequence (looked up): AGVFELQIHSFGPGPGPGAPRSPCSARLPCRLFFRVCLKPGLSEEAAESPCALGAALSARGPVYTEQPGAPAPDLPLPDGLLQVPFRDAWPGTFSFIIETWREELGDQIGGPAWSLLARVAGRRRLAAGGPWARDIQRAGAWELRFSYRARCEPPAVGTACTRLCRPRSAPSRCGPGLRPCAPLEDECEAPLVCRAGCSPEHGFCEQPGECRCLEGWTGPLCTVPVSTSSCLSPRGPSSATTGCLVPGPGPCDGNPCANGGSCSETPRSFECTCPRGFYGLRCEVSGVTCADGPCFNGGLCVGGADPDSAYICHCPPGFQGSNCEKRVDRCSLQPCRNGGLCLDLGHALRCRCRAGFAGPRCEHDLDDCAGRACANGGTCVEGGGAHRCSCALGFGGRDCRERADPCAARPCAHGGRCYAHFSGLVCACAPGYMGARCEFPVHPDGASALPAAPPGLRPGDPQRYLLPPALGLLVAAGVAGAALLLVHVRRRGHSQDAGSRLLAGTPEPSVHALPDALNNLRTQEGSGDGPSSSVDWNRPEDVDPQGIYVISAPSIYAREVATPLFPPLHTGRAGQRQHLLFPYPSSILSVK

T2: Human DLL3-His (human, UniProt Q9NYJ7 27-492)
T2 construct: also called huDLL3-His; hu DLL3
T2 sequence: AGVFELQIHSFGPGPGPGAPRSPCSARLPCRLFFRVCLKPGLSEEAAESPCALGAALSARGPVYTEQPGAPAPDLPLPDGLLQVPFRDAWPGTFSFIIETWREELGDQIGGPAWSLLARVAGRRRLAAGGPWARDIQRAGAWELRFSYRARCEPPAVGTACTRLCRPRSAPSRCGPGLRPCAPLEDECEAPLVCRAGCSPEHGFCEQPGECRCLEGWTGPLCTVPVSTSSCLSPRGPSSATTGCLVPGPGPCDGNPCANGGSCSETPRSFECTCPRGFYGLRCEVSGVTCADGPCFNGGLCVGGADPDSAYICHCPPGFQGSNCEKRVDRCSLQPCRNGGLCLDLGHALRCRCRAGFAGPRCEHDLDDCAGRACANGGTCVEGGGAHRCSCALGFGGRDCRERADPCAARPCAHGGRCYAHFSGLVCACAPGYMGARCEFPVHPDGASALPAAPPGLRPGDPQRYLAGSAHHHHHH


Tests used:
[1] = target: T1, human DLL3 (endogenous, on SCLC cell …); assay: flow cytometry on a DLL3-positive SCLC cell line (not named on the sheet), PE-conjugated anti-mouse secondary antibody
Text: Cells (T cells or human SCLC cells) were stained with increasing concentrations of anti-DLL3 antibody with increasing concentrations in FACS buffer (PBS/0.5% BSA/0.05% sodium azide).

Human DLL3-His = target: T2, Human DLL3-His; assay: sandwich ELISA with ECL readout (MSD): anti-DLL3 antibody coated, recombinant DLL3 protein titrated; the concentration is that of DLL3 protein
Description: Binding of antibodies was performed in an ELISA. In brief, anti-DLL3 antibodies were coated at a concentration of […] at 4° C. over night. After washing the plates were blocked with blocking buffer (Gibco, Gibco #043-90309A) for one hour at room temperature, followed by washing and incubation with recombinant DLL3 protein at increasing concentrations. For detection the bound DLL3 protein was incubated with a polyclonal anti-DLL3 antibody (R&D Systems, AB4315) followed by a SULFO-TAG labelled anti-goat antibody (R32AG-1) for one hour. The bound antibody was quantified by using a Read Buffer (MSD) in a Sector imager 6000 (MSD).

EC50 (read off the curve) [1] [nM] | binding result [1] | EC50 (read off the curve) (Human DLL3-His) [ng/mL] | Binder
~0.4 |  |  | anti-DLL3 antibody DLL3#6 (antibody, V domains shown, detected with anti-mouse secondary antibody) VH: QVQLQESGPGLVKPSETLSLTCTVSGGSISSYFWSWIRQPAGKGLEWIGRIYTSGSTNYNPSLNSRLTMSVDTSKNQFSLKLSSVTAADTAVYYCARRGDWGGFDIWGQGTVVTVSS VL: DIQLTQSPSFLSTSVGDRVTITCRASQDISNYFAWYQQKPGKAPKLLIYAASTLQSGVPSRFSGGGSGTEFTLTISSLQPEDFATYYCQQLNSYPYTFGQGTKLEIK
 | binds |  | anti-DLL3 antibody DLL3#1 (antibody, V domains shown, it was detected with anti-mouse reagents) VH: QVQLVQSGAEVKKPGASVKVSCKASGNTFTNYYMHWVRQAPGPGLEWMGIIDPSVGSKSYAQKFLGRVTIARDTSTSTVFLDLYSLRSEDTAVYFCARAGKRFGESYFDYWGQGTLVTVSS VL: EIVLTQSPGTLSLSPGERATLSCRASQSVSSNFLVWYQQKPGQAPRPLIYGASTRASGIPDRFSGSGSGADFTLTISRLEPEDFALYYCQQYGDSPYTFGQGTTLEIK
 |  | ~10 | anti-DLL3 antibody DLL3#3 (antibody, V domains shown, detected with anti-mouse secondary antibody) VH: QVQLVQSGAEVKKPGASVKVSCKASGYTFTSYYVHWVRQAPGQGLEWMVIINPGGGTTSYAQKFLGRVTMTRDTSTNTVYMELKSLRSEDTAVYYCARGEAVTGNYFYYGMDVWGQGTTVTVSS VL: DIQMTQSPSAMSASVGDRVTITCRASQGISNYLVWFQQKPGKAPKRLIYAVSSLYSGVPSRFSGSGSGTEFTLTISSLQPEDFATYYCLQHDSYPYTFGQGTKLEIK
 | binds |  | anti-DLL3 antibody DLL3#2 (antibody, V domains shown, detected with anti-mouse secondary antibody) VH: QVQLVQSGAEVKKPGASVKVSCKASGYTFTSYYMHWVRQAPGQGLEWMGIINPSGGSTSYAQKFQGRVTMTRDTSTSTVYMELSSLRSEDTAVYYCARGEAVGGNYYYYGMDVWGQGTTVTVSS VL: DIQMTQSPSAMSASVGDRVTITCRASQGISNYLAWFQQKPGKVPEPLIYAASSLQSGVPSRFSGSGSVTEFTLTISSLQPEDFATYYCLQHNSSPYTFGQGTKLEIK
~0.5 |  | ~10 | anti-DLL3 antibody DLL3#5 (antibody, V domains shown, detected with anti-mouse reagents) VH: QVQLVQSGAEVKKPGASVKVSCKASGFTFTGYYIHWVRQAPGQGLEWMGWINPNSGGTNYAQKFQGRVTMTRDSSINTAFMELSRLTSDDTAVYYCAAGWDYWGQGTLVTVSS VL: not shown
~0.1 |  | ~20 | anti-DLL3 antibody DLL3#4 (antibody, V domains shown, detected with anti-mouse secondary antibody) VH: QVQLQQSGTELVKPGASVKLSCKASVYTFTSYFMYWVKQRPGHGLEWIGEISPTNGNSNLNERFKNKATLTVDKSSSTAYMQLSSLTSEDSAVYYCTRGGDGYLDYWGQGTTLTVSS VL: DIVLTQSPASLAVSLGQRATISCRASKSVSSFGYSFMHWYQQKPGQPPKLLIYLASNLESGVPARFSGSGSGTDFTLNIHPVEEEDAATYYCQHSRELPWTFGGGTKLEIK

— patent US20220251236A1 (Boehringer Ingelheim, published 2022)
